Biological target: enterokinase

B1: protein of the present invention having an amino acid sequence shown in SEQ ID NO:1 (protein)
chain: YDPEAASAPGSGNPCHEASAAQKENAGEDPGLARQAPKPRKQRSSLLEKGLDGAKKAVGGLGKLGKDAVEDLESVGKGAVHDVKDVLDSVL
  amidolytic activity against the fluorescent peptide substrate for trypsin (increase in fluorescence intensity): a minimal proteolytic activity exhibited by enterokinase alone was significantly enhanced by the protein of the present invention immunoprecipitated from JAR cells

— patent US20100144027
